Measurements reported in patent US11110182B2, “Multifunctional RNA nanoparticles and methods for treating cancer and therapeutic resistant cancer” (University of Cincinnati, priority 2016, dated 2021).

B1: pRNA-HER2apt-siMED1: 3-WJ pRNA nanoparticle bearing a HER2-targeting RNA aptamer and two different MED1 siRNAs; strands p1 SEQ ID NO: 3, p2 SEQ ID NO: 4 (nucleic acid)
chain 1: GGACAGUGAAAGUGAGUCAAAGGAUCAAUCAUGGCCAAAGAUGUUACUUUGAGAGCCUU
chain 2: GGCUCUCAAAGUAACAUCUAAGGCCAUGUGUAUGUGGGGGGAGGACGAUGCGGUCUGCUGUGCUUGAUAUGCCCCAGACGACUCGCCCCCCACAUACUUUGUUGAUCCAAUGACUCACUUUCACUGUCCUU
modifications: 2'-F modification; third strand may lack entry; pRNA-HER2apt-siMED1, p1; pRNA-HER2apt-siMED1, p2
B2: pRNA-HER2apt^mut-siMED1: control pRNA nanoparticle with mutant HER2 aptamer; strands p1 SEQ ID NO: 5, p2 SEQ ID NO: 6 (nucleic acid)
chain 1: GGACAGUGAAAGUGAGUCAAAGGAUCAAUCAUGGCCAAAGAUGUUACUUUGAGAGCCUU
chain 2: GGCUCUCAAAGUAACAUCUAAGGCCAUGUGUAUGUGGGAUGAGGAGUAUGAAGAUACCUGUACUUGAUAUGCCCCAGACGACAUUCCCCCCACAUACUUUGUUGAUCCAAUGACUCACUUUCACUGUCCUU
modifications: pRNA-HER2apt(mut)-siMED1, p1; pRNA-HER2apt(mut)-siMED1, p2

Tested on: MED1
Experiment: MED1 protein level by western blots in MDA-MB-231 cells
Format: cell-based, human
Conditions: MDA-MB-231, transfected, 48 h
From the text: FIG. 8A) HER2 expression in BT474 and MDA-MB-231 cells determined by western blot analyses. FIG. 8B) The binding of AF-647-labeled pRNA-HER2apt-siMED1 and its mutant nanoparticles to MDA-MB-231 and BT474 cells examined by confocal microscopy. Green represents the immunofluorescent staining of HER2, and blue represents nuclear staining with DAPI. FIG. 8C) The internalization of AF647-labeled pRNA nanoparticles by MDA-MB-231 cells examined by confocal microscopy. Green represents the immunofluorescent staining of β-actin. Scale bar: 10 μm. FIG. 8D) The cellular uptake of AF647-labeled pRNA nanoparticles by MDA-MB-231 cells quantified by flow cytometry. FIG. 8E) HER2 expression in BT474 xenograft tumors was examined by western blot analyses. FIG. 8F) MDA-MB-231 cells were incubated directly with (as indicated by-) or transfected with pRNAs using lipofectamine 2000. At 48 h post treatment, MED1 protein levels were determined by western blots.
Cell culture. […] The hydrodynamic diameter and Tm value of pRNA nanoparticles were determined using dynamic light scattering and TGGE assay, respectively, as previously described.^54 The AFM imaging of the pRNA nanoparticles was performed at the University of Nebraska Medical Center imaging facility as previously reported.^55 Briefly, the pRNA nanoparticles (5 μL) were deposited on APS modified mica ^56 for a total of 2 min of incubation time. […]

| Molecule | MED1 protein level after transfection with lipofectamine 2000 |
| --- | --- |
| B1 | MED1 silencing |
| B2 | MED1 silencing |
